In experiment [1] the target is T1, TTR34-54cyc (human, cyclic, disulfide between the two Cys in the poly-Gly linkers). In words: ELISA, ELISA-2.
Experiment [2] has as its target T1, TTR34-54cyc. In words: ELISA, ELISA-1.
Experiment [3] addresses T2, Biotin.TTR40-49 (human, not fully specified (N-terminus)).
T2 chain: TWEPFASGKT
In words: ELISA. On the technique in general: In an ELISA, binding on a coated surface is turned into a signal by an enzyme label.

For experiment [4], the target named is T3, TTR40-49 (human).
T3 chain: TWEPFASGKT
In words: ELISA.

In experiment [5] the target is mis.WT-TTR (human). In words: ELISA, ELISA-1.
Experiment [6] has as its target mis.WT-TTR (human). In words: ELISA, ELISA-2.

These results are taken from patent publication US20260374812 (published 2026).

Where no end group is shown, it is not given here.

T1 sequence (chain, as listed by the source): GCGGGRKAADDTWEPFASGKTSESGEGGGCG

B1: NI-301.37F1 (antibody, V domains shown)
VH: QVQLQESGPGLVKPSETLSLTCSVSGGSIISRSSYWGWIRQPPGKGLEWIGGIYHSGNTYDNPSLKSRLTMSVDTSKNQFSLNLRSVTAADTAVYYCARIVPGGDAFDIWGQGTMVTVSS
VL: DIQMTQSPSSLSASVGDRVTIACRASQSVGTYLNWYQQKRGKAPKLLIFAASSLQSGVPSRFSGSGSGTDFTLTISSLQPEDFATYYCQQSYSSPPTFGQGTKVEIK
As to B1, the concentration giving a half-maximal response (EC50) was 0.66 nM in experiment [1] and 0.027 nM in experiment [2]. The binding result in experiment [3] and in experiment [4] was “no binding” in each case.

B2: NI-301.37F1 (antibody, V domains shown)
VH: B1 VH
VL: B1 VL
modifications: plasma-purified wild-type TTR, misfolded/aggregated at pH 3.0
On to B2, for which the EC50 in experiment [5] was found to be 0.338 nM; in experiment [6], 8.3 nM.

As usually defined, the EC50 is the concentration that produces a half-maximal response. Read a high EC50 as a need for much substance.
